The values below come from patent US20220324970A1 (Janssen / Centocor, published 2022).

Where two headings read alike, the source gives them in different places.

Assay [1] addresses T1, human pIgR extracellular domain 4-domain 5 (D4-D5) (human, UniProt P01833 350-565).
T1 construct: HIS-tagged construct made in HEK293 cells; also called hpIgR domains 4-5
T1 chain: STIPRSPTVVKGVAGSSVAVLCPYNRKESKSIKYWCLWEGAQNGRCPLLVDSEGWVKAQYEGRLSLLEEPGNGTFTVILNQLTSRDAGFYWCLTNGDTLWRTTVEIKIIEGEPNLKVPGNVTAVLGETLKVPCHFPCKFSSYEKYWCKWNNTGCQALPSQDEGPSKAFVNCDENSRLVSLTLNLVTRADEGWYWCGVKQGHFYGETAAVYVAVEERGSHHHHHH
Description: ECL (MSD) heat map, HIS-tagged construct captured via anti-HIS, anti-human-Fc detection.
Description: The Electrochemiluminescence assay was performed as follows. A meso-scale discovery (MSD) platform was used for conducting epitope mapping and epitope burial studies. To test the binding of VHH-mono-Fc molecules to purified pIgR protein constructs, Streptavidin MSD plates were coated with a biotinylated anti-HIS antibody (2 μg/ml in PBS) for 1 hour at RT with 1000 rpm, washed 3× with PBT (PBS+0.1% Tween-20), incubated with blocking buffer for 1 hour at RT, incubated with His-tagged pIgR proteins (10 μg/ml in PBS) for 2 hours at RT with 1000 rpm, washed 3× with PBT, incubated with VHH-mono-Fc molecules (100 μg/ml in PBS) for 2 hours at RT with 1000 rpm, washed 3× with PBT, incubated with ruthenylated-anti-human-Fc antibody (2 μg/ml in PBS) for 1 hour at RT with 1000 rpm, washed 3× with PBT and read plates in 40 ul reading buffer using the MSD imager. ECLU values were plotted as a heatmap.

Assay [2] concerns the target T2, mouse pIgR extracellular domain (ECD) (mouse, UniProt O70570 19-645).
T2 construct: The entry ends with a HHHHHH tag; also called mpIgR; mpIgR ectodomain
T2 sequence: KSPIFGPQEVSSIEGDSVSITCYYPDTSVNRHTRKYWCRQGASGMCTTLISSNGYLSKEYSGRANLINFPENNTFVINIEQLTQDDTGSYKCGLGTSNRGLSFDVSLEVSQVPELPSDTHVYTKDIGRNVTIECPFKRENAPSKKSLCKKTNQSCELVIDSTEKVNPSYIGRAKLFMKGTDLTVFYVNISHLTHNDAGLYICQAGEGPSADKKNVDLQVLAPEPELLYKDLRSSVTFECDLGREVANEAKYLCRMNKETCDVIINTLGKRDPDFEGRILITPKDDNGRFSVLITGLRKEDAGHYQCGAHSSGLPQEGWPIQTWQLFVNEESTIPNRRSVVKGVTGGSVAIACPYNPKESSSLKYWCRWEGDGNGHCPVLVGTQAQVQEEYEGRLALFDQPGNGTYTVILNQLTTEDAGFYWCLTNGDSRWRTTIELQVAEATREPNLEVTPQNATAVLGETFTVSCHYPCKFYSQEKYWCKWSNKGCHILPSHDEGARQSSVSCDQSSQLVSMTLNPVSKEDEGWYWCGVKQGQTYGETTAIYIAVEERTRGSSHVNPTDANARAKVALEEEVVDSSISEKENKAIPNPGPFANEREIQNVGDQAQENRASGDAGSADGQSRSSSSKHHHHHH
Description: BLI, screen of the VHH clones generated from mpIgR antigen. (In general: Biolayer interferometry detects binding as a change in optical thickness at a sensor tip.)

Assay [3] deals with T3, human pIgR extracellular domain (ECD) (human, UniProt P01833 19-638).
T3 construct: also called hpIgR ECD
The assay is described as above.

Assay [4] has as its target T3, human pIgR extracellular domain (ECD). Description: BLI; summary table, repeats Table 1.
Assay [5] has the same target. Description: BLI; summary table, repeats Table 1; summary Table 4.
Assay [6] has as its target T4, human pIgR, full-length, on cells (human, UniProt P01833 19-764). Description: cell-based or functional assay.
In assay [7] the target is T5, human pIgR extracellular domain 2 (D2) (human, UniProt P01833 128-242).
T5 construct: HIS-tagged construct made in HEK293 cells; also called hpIgR domain 2
Description: ECL (MSD) heat map, HIS-tagged construct captured via anti-HIS, anti-human-Fc detection.

Assay [8] addresses T6, human pIgR extracellular domain 5 (D5) (human, UniProt P01833 460-565).
T6 construct: HIS-tagged construct made in HEK293 cells; also called hpIgR domain 5
The assay is described as above.

A further assay deals with T7, hpIgR_D3.
T7 construct: HIS-tagged construct from HEK293 cells; also called human pIgR extracellular domain 3 (D3); hD3
T7 HIS-tagged domain construct: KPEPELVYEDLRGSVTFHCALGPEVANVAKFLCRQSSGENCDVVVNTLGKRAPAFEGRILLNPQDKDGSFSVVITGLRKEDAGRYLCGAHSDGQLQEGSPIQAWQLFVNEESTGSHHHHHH
The description is as above.

Assay [9] addresses T4, human pIgR, full-length, on cells. Description: flow cytometry on MDCK-hpIgR cells; summary table, repeats Table 1. (In general: Flow cytometry measures light scatter and fluorescence of single cells or particles in a stream.)
Assay [10] concerns the target T3, human pIgR extracellular domain (ECD). Description: BLI, HIS-tagged pIgR construct on anti-HIS biosensors.
Description: (§1) Bio-layer Interferometry was performed as follows. […] Data were collected with Octet Data Acquisition version 7.1.0.87 (ForteBio) and analyzed using Octet Data Analysis version 7.1 (ForteBio). To measure binding kinetics between VHH-mono-Fc molecules and HIS-tagged pIgR proteins, VHH-mono-Fc was immobilized on amine-reactive generation-2 (ARG2) biosensors according to manufacturer's instructions and increasing concentrations of pIgR proteins were exposed to sensor-immobilized VHH. In some cases, HIS-tagged pIgR proteins were immobilized on anti-HIS biosensors and exposed to increasing concentrations of VHH-mono-Fc molecules. Association and dissociation rates were measured by the shift in wavelength (nm). […] All reactions were performed at 25° C. in PBS.
(§2) (Full-length hpIgR ECD was purchased from R&D Systems.) The five constructs (D1-D2, D1, D1_tCDR1, D1_tCDR2, D1_tCDR3) were expressed and purified from HEK293 cells using immobilized metal ion affinity chromatography. Three hpIgR domain-1 CDR mutants (D1_tCDR1, D1_tCDR2, D1_tCDR3) contain respective teleost fish CDR on a hpIgR domain-1 framework. His-tagged pIgR constructs were immobilized on anti-HIS biosensors and binding of VHH-mono-Fc molecules to pIgR constructs were measured by bio-layer interferometry.
Assay [11] concerns the target T4, human pIgR, full-length, on cells. Description: flow cytometry on MDCK-hpIgR cells; summary table, repeats Table 1. The source holds these as a separate data set.
Assay [12] shares this target. Description: cell-based or functional assay. This is another data set of the same source.
Assay [13] concerns the target T3, human pIgR extracellular domain (ECD). Description: BLI, HIS-tagged pIgR construct on anti-HIS biosensors; HIS-tagged hpIgR_ECD on anti-HIS biosensors, Table 3.
Description: as §1, §2
The target is the same in assay [14]. Description: BLI; summary table, repeats Table 1. This is another data set of the same source.
Assay [15] concerns the target T2, mouse pIgR extracellular domain (ECD). Description: BLI, screen of the VHH clones generated from hpIgR antigen.

T3 sequence (P01833 other isoform, or with tags, fused parts or gaps): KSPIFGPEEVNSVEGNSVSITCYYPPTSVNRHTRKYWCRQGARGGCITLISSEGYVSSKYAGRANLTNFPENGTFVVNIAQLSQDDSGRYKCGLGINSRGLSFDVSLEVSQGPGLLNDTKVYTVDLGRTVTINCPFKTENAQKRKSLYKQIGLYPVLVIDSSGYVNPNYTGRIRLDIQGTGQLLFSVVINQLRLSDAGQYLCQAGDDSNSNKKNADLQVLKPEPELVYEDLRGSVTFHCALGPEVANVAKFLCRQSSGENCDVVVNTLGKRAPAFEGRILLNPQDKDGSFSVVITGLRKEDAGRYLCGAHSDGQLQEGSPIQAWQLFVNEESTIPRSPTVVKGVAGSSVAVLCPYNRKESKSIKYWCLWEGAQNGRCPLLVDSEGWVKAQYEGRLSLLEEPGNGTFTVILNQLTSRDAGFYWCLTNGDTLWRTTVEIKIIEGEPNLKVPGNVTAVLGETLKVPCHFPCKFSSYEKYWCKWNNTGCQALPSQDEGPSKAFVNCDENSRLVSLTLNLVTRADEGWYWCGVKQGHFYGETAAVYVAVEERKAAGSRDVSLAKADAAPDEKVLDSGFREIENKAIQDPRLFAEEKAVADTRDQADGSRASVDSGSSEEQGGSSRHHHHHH
T4 sequence (P01833 19-764): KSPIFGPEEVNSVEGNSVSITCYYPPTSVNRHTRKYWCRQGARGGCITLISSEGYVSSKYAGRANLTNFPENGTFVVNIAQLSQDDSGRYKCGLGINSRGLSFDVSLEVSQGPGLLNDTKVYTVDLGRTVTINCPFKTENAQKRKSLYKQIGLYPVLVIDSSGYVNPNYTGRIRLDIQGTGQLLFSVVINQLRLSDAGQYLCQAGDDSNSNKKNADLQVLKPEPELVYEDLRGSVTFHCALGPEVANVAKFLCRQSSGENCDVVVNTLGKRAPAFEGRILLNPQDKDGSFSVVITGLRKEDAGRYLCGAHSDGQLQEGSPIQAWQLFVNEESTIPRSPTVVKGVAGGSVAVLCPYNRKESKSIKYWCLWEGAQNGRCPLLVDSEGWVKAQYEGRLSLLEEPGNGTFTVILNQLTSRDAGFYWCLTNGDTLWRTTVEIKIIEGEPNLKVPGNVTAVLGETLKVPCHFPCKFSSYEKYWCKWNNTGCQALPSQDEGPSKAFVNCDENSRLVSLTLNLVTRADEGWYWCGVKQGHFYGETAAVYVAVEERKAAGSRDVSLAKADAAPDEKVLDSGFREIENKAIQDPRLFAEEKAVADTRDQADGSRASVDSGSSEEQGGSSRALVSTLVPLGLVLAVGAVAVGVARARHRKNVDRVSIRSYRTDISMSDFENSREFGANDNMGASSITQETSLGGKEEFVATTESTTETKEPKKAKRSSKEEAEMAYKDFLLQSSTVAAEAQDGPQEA

B1: VHH2-linker-mono-Fc protein (Fc fusion)
chain: EVQVVESGGGLVQAGGSLKLACAAPGLTFSSYRMGWFRQAPGQEREFVAAIDWNGRGTYYRYYADSVKGRSTISRDNAKNTVYLQMNSLKPEDTAVYYCAATTVLTDPRVLNEYATWGQGTQVTVSSEPKTPKPQPQPQLQPQPNPTTESKSPKSPAPELLGGPSVFLFPPKPKDTLMISRTPEVTCVVVDVSHEDPEVKFNWYVDGVEVHNAKTKPREEQYNSTYRVVSVLTVLHQDWLNGKEYKCKVSNKALPAPIEKTISKAKGQPREPQVYTKPPSREEMTKNQVSLSCLVKGFYPSDIAVEWESNGQPENNYKTTVPVLDSDGSFRLASYLTVDKSRWQQGNVFSCSVMHEALHNHYTQKSLSLSPGK
notes: also called VHH2-mono-Fc; mpIgR_338
B1: the binding result (in assay [1]; in assay [7]; in assay [8]; in the assay with hpIgR_D3) was “no binding (tested: 100 ug/ml (single concentration))” in each case. Moreover, the Kd (usually the equilibrium constant for the complex coming apart) in [2] was 1 nM; in assay [3], 22 nM; in assay [4], 21 nM; in [5], 21 nM; in [10], 22 nM. Besides, the “Transcytosis (Fold Incr.)” value in [6] turned out to be 34.2 fold. Moreover, the EC50 in assay [9] and in assay [11] was 6.3 nM throughout. In [12], the “increase in their apical concentration relative to control VHH (MDCK-hpIgR monolayers)” value is more than 10 fold.

B2: VHH3-linker-mono-Fc protein (Fc fusion)
chain: QLQLVESGGGLVQPGGSLRLSCAASGSIFSINVMGWYRQAPGKQRELVARINGGGITHYAESVKGRFTISRDNAKNTVYLQMNSLKPEDTAAYYCKADVFGSSGYVETYWGQGTQVTVSSEPKTPKPQPQPQLQPQPNPTTESKSPKSPAPELLGGPSVFLFPPKPKDTLMISRTPEVTCVVVDVSHEDPEVKFNWYVDGVEVHNAKTKPREEQYNSTYRVVSVLTVLHQDWLNGKEYKCKVSNKALPAPIEKTISKAKGQPREPQVYTKPPSREEMTKNQVSLSCLVKGFYPSDIAVEWESNGQPENNYKTTVPVLDSDGSFRLASYLTVDKSRWQQGNVFSCSVMHEALHNHYTQKSLSLSPGK
notes: made in CHO cells; also called VHH3-mono-Fc; hpIgR_021
B2: the dissociation constant (Kd) in assay [13] came out at 10 nM; in assay [4] it was 5 nM; in assay [14], 5 nM; in assay [15], 40 nM. Further, the “Transcytosis (Fold Incr.)” value in [6] was 2.6 fold. In addition, the binding result (in [7]; in assay [8]; with hpIgR_D3) was “no binding (tested: 100 ug/ml (single concentration))” in each case. The EC50 in [9] and in [11] was 6.4 nM each time.
